Our source for the telomerase activity immunoprecipitated by antibodies to SEQ ID No 7 values is patent publication US20040171000A1.

The target of the test is human telomerase (active telomerase from HeLa cell nuclear extract; catalytic subunit hTERT) (human) (UniProt O14746). The test is described as follows: cell-based or functional assay.
Chain of human telomerase (active telomerase from HeLa cell nuclear extract; catalytic subunit hTERT) (human) (O14746 whole entry): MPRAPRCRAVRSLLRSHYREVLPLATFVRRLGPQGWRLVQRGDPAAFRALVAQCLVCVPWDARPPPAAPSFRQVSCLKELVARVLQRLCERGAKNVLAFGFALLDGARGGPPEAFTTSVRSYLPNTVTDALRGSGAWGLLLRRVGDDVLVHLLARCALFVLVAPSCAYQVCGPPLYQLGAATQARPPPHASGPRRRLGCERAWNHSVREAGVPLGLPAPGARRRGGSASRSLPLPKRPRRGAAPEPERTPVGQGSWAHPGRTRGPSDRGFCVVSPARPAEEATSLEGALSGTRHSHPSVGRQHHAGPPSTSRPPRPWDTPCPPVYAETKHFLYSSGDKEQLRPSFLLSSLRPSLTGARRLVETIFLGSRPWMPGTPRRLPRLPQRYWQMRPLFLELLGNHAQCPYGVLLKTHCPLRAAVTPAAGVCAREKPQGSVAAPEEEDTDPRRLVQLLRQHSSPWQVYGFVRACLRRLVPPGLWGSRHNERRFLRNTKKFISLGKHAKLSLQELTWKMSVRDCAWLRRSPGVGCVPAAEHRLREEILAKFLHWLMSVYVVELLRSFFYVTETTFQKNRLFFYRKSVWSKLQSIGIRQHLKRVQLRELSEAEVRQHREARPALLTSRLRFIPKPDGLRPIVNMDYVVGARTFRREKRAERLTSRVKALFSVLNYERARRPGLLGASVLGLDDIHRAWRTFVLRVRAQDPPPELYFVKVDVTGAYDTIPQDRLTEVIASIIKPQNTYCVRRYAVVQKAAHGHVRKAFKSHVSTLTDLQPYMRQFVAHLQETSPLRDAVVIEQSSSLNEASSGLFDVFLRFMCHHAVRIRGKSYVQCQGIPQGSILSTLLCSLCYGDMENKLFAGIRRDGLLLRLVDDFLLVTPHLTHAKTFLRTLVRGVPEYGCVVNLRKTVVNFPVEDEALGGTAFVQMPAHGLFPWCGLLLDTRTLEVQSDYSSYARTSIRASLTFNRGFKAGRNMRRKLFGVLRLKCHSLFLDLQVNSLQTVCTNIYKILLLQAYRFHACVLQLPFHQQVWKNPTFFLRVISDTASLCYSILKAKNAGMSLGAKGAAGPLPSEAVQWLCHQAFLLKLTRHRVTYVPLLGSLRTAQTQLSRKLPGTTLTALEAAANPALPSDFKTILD

“EST1-0732 (human EST1 protein of SEQ ID No 2) (from UniProt Q86US8 1-1419)” came in with a telomerase activity immunoprecipitated by antibodies to SEQ ID No 7 of 70%.
